According to US20200148787A1 (KYMAB, published 2020):
Blank lines part the entries; values can stand above or below the binder they belong to.

What was measured:
Human factor IX (FIX) = target: T1, Human factor IX (FIX) (human, UniProt P00740 47-461, 12 glutamic acid residues in the GLA domain post-translationally gamma-carboxylated (general description)); assay: SPR Biacore 8K, IgG captured on anti-human IgG Fc, FIX analyte, 25 C, 1:1 fit
T1 construct: mature; Bought reagent, used as SPR analyte
Description: An anti-human IgG Fc antibody was immobilised on CM4 chip (GE Healthcare catalog number BR100534) according to manufacturer's instructions. Amine coupling kit (BioRad) was used to activate the surface of the chip. […] The immobilisation run was performed at 25° C. using HBS-EP (10 mM HEPES pH 7.4, 150 mM NaCl, 3 mM EDTA, 0.05% Polysorbate 20 pH 7.6) as immobilisation running buffer.
Purified monospecific antibodies (referred to as ligand) from Example 13 were captured on the anti-human IgG Fc CM4 surface at approximately 2 μg/ml. The ligands were injected for 60 sec at 10 μl/min in all the active channels of all 8 flow channels. The run was performed at 25° C. using neutral pH (pH 7.4) HBS-P 1× (0.01 M HEPES pH 7.4, 0.15 M NaCl, 0.05% Polysorbate 20 pH 7.6)+CaCl₂) 2.5 mM as running buffer. Human factor IX (FIX) (Enzyme Research Laboratories cat n. HFIX 47064) was reconstituted at 1 mg/ml (MW ˜55 KDa) in the running buffer and used as analyte. […] Three injections of 10 mM glycine pH 1.5 for 60 sec at 10 μl/min were used for the regeneration phase.
The association and dissociation data of the interaction were fitted using biomolecular reaction model (1:1 Langmuir model). The values for association rate constant (kₒₙ), dissociation rate constant (koff) and dissociation constant (KD) were calculated from the binding data by BIAevaluation software.

Human Factor X (FX) = Human Factor X (FX) (human, UniProt P00742 41-179; P00742 183-488, limits assumed); assay: SPR Biacore 8K, IgG captured on anti-human IgG Fc, FX analyte, 25 C, 1:1 fit
Human Factor X (FX), sequence (P00742 41-179 limits assumed, form in doubt, chain 1 of 2): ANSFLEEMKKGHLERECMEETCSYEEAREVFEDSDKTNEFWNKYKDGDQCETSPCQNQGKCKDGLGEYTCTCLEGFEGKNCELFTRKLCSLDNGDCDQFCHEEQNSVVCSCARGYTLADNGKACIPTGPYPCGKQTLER
Human Factor X (FX), sequence (P00742 183-488 limits assumed, form in doubt, chain 2 of 2): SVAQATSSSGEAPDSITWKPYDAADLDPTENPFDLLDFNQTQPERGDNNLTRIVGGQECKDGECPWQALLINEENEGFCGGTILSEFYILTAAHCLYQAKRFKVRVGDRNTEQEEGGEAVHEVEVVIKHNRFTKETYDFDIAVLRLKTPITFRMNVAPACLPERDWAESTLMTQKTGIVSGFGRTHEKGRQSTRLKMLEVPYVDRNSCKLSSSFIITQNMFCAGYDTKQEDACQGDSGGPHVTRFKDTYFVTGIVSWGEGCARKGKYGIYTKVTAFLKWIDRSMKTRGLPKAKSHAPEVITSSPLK
Description: Amine coupling kit (BioRad) was used to activate the surface of the chip. […] The immobilisation run was performed at 25° C. using HBS-EP (10 mM HEPES pH 7.4, 150 mM NaCl, 3 mM EDTA, 0.05% Polysorbate 20 pH 7.6) as immobilisation running buffer.
The run was performed at 25° C. using neutral pH (pH 7.4) HBS-P 1× (0.01 M HEPES pH 7.4, 0.15 M NaCl, 0.05% Polysorbate 20 pH 7.6)+CaCl₂) 2.5 mM as running buffer.

Kd (Human factor IX (FIX)): 428 nM
koff (Human factor IX (FIX)): 0.031 s⁻¹
kon (Human factor IX (FIX)): 72300 M⁻¹ s⁻¹
B1: N225H_IgG4PE + N128L_IgL (antibody, V domains shown)
VH: EVQLVESGGGFVQPGGSLRLSCAVSGFTFNSYWMSWVRQAPGKGLEWVANINQDGSEKFYVASVKGRFTISRDNAKKSVYLQMNSLRAEDTAVYYCAREGYSSSSYYGMDVWGQGTTVTVSS
VL: SYVLTQPPSVSVAPGETARITCGGDNIGRKSVYWYQQKSGQAPVLVIYYDSDRPSGIPERFSGSNSGNTATLTISRVEAGDEADYYCQVWDGSSDHWVFGGGTKLTVLG
notes: Monospecific IgG4PE with lambda light chain

Kd (Human Factor X (FX)): 3.57 nM
B2: T25H_IgG4PE + T25L_IgK (antibody, V domains shown)
VH: QVQLQESGPGLVKPSETLSLTCTVSGGSISSGIYYWSWIRQHPGKGLEWIGYINNSGNTYYNPSLKGRVNISVDTSKKQFSLKLSSVTDADTAVYYCARGGSGDYWGQGTLVTVSS
VL: EIVLTQSPATLSLSPGERATLSCRTSQSINNYLAWFQQKPGQAPRLLIYDASNRAPGIPARFSGSGSGTDFTLTISSLEPEDFVVYFCQQRNNWPPTFGQGTKVEIKR
notes: Monospecific IgG4PE, kappa; Kappa junction as noted for T14
